Measurements reported in paper PMC7895813 (Journal of Molecular Biology, 2021).

Key:
[1] = target: the molecule itself; assay: SEC; GST-MDM2 variants (3 mg/mL) incubated with 1:10 TEV for 16-20 h at 4 °C; soluble fraction of the cleaved products on Superdex 75 Increase 10/300; comparison with molecular weight markers and SDS-PAGE
[2] = target: T1, UbcH5B–Ub, isopeptide-linked E2–Ub conjugate (UbcH5B S22R C85K) (human | , UniProt P62837 1-147; P0CG48 1-76, S22R | C85K, lysine 85 (C85K) isopeptide-linked to the C-terminus of Ub | C-terminus isopeptide-linked to lysine 85 of UbcH5B); assay: SPR; GST-tagged MDM2 variants captured on a CM-5 chip with coupled anti-GST antibody; serial dilution of UbcH5B–Ub as analyte; Biacore T200, 25 °C; 25 mM Tris-HCl pH 7.6, 150 mM NaCl, 1 mM DTT, 0.005% Tween-20; two technical replicates; conditions: both partners purified
T1 construct: ubiquitin (Ub), the cut product of the ubiquitin precursor; Ub was cloned with an N-terminal 6xHis-tag, a TEV cleavage site and a GGS linker; also called E2(UbcH5B)–Ub; source: E. coli BL21(DE3) GOLD, purified; conjugate generated as described previously

[3] = target: the molecule itself; assay: SEC; cleaved MDM2 variants after removal of the GST-tag on HiLoad 16/600 Superdex 75; oligomeric state by comparison with molecular weight markers

B1: MDM2^h A434S (human MDM2 419-C A434S), GST-tag removed (domain or fragment, UniProt Q00987 419-491, looked up)
chain: TQDKEESVESSLPLNSIEPCVICQGRPKNGCIVHGKTGHLMACFTCAKKLKKRNKPCPVCRQPIQMIVLTYFP
notes: MDM2, human, residues 419 to the C-terminus, with A434S; source: E. coli BL21(DE3) GOLD, GST-MDM2 treated with TEV, soluble cleaved products on analytical SEC; not shown: GST, N-terminal, cleaved
B1: binds [1].

B2: MDM2^h I435V (human MDM2 419-C I435V), GST-tag removed (domain or fragment, UniProt Q00987 419-491, looked up)
chain: TQDKEESVESSLPLNAVEPCVICQGRPKNGCIVHGKTGHLMACFTCAKKLKKRNKPCPVCRQPIQMIVLTYFP
notes: MDM2, human, residues 419 to the C-terminus, with I435V; source: E. coli BL21(DE3) GOLD, GST-MDM2 treated with TEV, soluble cleaved products on analytical SEC; not shown: GST, N-terminal, cleaved
B2: binds [1].

B3: MDM2^h P491S (human MDM2 419-C P491S), GST-tag removed (domain or fragment, UniProt Q00987 419-491, looked up)
chain: TQDKEESVESSLPLNAIEPCVICQGRPKNGCIVHGKTGHLMACFTCAKKLKKRNKPCPVCRQPIQMIVLTYFS
notes: MDM2, human, residues 419 to the C-terminus, with P491S; source: E. coli BL21(DE3) GOLD, GST-MDM2 treated with TEV, soluble cleaved products on analytical SEC; not shown: GST, N-terminal, cleaved
B3: binds [1].

B4: human MDM2 419-C G443T (MDM2^hGT), GST-tag removed (domain or fragment, UniProt Q00987 419-491, looked up)
chain: TQDKEESVESSLPLNAIEPCVICQTRPKNGCIVHGKTGHLMACFTCAKKLKKRNKPCPVCRQPIQMIVLTYFP
notes: MDM2, human, residues 419 to the C-terminus, with G443T; also called MDM2^h G443T; MDM2-G443T; source: E. coli BL21(DE3) GOLD, GST-tag released with TEV, Superdex 75 gel filtration; not shown: GST, N-terminal, cleaved
For B4, the “stoichiometry N” value [1] was 2.

B5: GST-tagged human MDM2 419-C (MDM2^h) (domain or fragment, UniProt Q00987 419-491, looked up)
chain: TQDKEESVESSLPLNAIEPCVICQGRPKNGCIVHGKTGHLMACFTCAKKLKKRNKPCPVCRQPIQMIVLTYFP
notes: MDM2, human, residues 419 to the C-terminus (RING domain with the preceding region); pGEX-4T1, N-terminal GST-tag followed by a TEV cleavage site; GST kept for SPR and ubiquitination assays; also called GST-MDM2^h; wild-type MDM2^h; source: E. coli BL21(DE3) GOLD, purified (glutathione Sepharose, gel filtration); not shown: GST, N-terminal, kept
In the case of B5, the Kd [2] is reported as 13.5 ± 0.6 µM.

B6: GST-tagged human MDM2 419-C G443T (MDM2^hGT) (domain or fragment, UniProt Q00987 419-491, looked up)
chain: TQDKEESVESSLPLNAIEPCVICQTRPKNGCIVHGKTGHLMACFTCAKKLKKRNKPCPVCRQPIQMIVLTYFP
notes: MDM2, human, residues 419 to the C-terminus, with G443T; pGEX-4T1, N-terminal GST-tag followed by a TEV cleavage site; GST kept for SPR and ubiquitination assays; also called GST-MDM2^hGT; MDM2^h G443T; source: E. coli BL21(DE3) GOLD, purified (glutathione Sepharose, gel filtration); not shown: GST, N-terminal, kept
B6 was tested, and the Kd [2] was 16.3 ± 1.9 µM.

B7: Danio rerio MDM2 407-C (MDM2^z), GST-tag removed (domain or fragment, Danio rerio (zebrafish), UniProt O42354 377-445, looked up)
chain: FNSLEACLPATCLEPCVICQSRPKNGCIVHGRTGHLMACYTCAKKLKNRNKLCPVCREPIQSVVLTYMS
notes: MDM2, Danio rerio (zebrafish), residues 407 to the C-terminus; 407-417 correspond to 423-433 of human MDM2, which implies a numbered chain of about 475 residues; also called zebrafish MDM2 407-C; source: E. coli BL21(DE3) GOLD, GST-tag released with TEV, Superdex 75 gel filtration; not shown: GST, N-terminal, cleaved
With B7 the “stoichiometry N” value [3] was 2.
